Laboratory results published in publication PMC5421877, “SOCS3 inhibits the pathological effects of IL-22 in non-melanoma skin tumor-derived keratinocytes” (Oncotarget, 2017).

How the values were obtained:
[1] = system: SOCS3 expression in healthy keratinocytes; test: SOCS3 mRNA and protein induction in healthy keratinocytes; format: cell-based, human
Experimental: Figure 1 IL-22 induces SOCS3, which limits STAT3 and Erk1/2 activation (A) Keratinocyte cultures (n = 3) were stimulated with IL-22 or not for 10 min and protein lysates were subjected to immunoprecipitation and WB analyses for basal and phospho-IL-22R1, Tyk2 or Jak1. (B) WB of time-course experiments were performed on keratinocyte cultures (n = 3) to evaluate basal STAT3, Erk1/2 and MEK or phosphor-STAT3 (Tyr705 and Ser 727), phosphor-Erk1/2 and phospho-MEK. Anti-β-actin Ab was used to normalize sample loading. (C) SOCS mRNA and protein levels were detected by real-time PCR or WB analyses in cultured keratinocytes prepared from healthy skin (n = 3) left untreated or stimulated with IL-22 for the indicated time periods and normalized with β-actin values. (D) HaCaT cells stably transfected with myc-tagged SOCS1 (n = 4), SOCS2 (n = 2) and SOCS3 (n = 4) genes or control plasmids (mock, n = 3) were left untreated or stimulated with IL-22 for 15 min or 3 h and lysates subjected to WB with anti-phospho STAT3 (Tyr705), -phospho STAT3 (Ser727), -STAT3, -phospho Erk, -Erk, -c-myc and -β-actin Abs, as indicated. (E) Keratinocyte cultures were transiently transfected with siRNA specific for SOCS3 or control siRNA (NC). After 48-h transfection, cells were stimulated with IL-22 or not for the indicated time periods. In RNA interference experiments, data were obtained by three independent experiments, and SOCS3 depletion was assessed by real-time PCR and WB. […] Data are expressed as ratio of densitometric intensity (D. I.) of phosphorylated and unphosphorylated STAT3 and Erk1/2 proteins. p < 0.05 (*) values were considered significant.
Figure 4 SOCS3 and SOCS1 are poorly expressed in the epidermis of NMSC lesions and are not induced in transformed keratinocytes by IL-22 (A) Immunohistochemistry for SOCS3 and SOCS1 (red staining) was performed respectively on frozen or paraffin-embedded sections from biopsies of healthy skin (i), NLS (ii, iii) and LS (iv, v) areas of BCC and SCC, specimens. Psoriatic skin biopsies were also analyzed (vi). Sections were counterstained with Mayer's H&E and were visually evaluated by an pathologist experienced in dermatology. […] (B) Graphs show SOCS3 and SOCS1 mRNA levels which were detected by real-time PCR analysis in cultured SCC (CAL27 and CAL33) and BCC (M77015) skin tumor lines left untreated or stimulated with IL-22 or IFN-γ for 3 h and normalized for β-actin mRNA expression levels. […] SOCS1 was detected by IP using a specific anti-SOCS1 Ab, whereas SOCS3 by WB with an anti-SOCS3 Ab. […] Densitometric intensity (D.I.) of SOCS1 or SOCS3/β-actin was calculated from three independent experiments and numerically expressed as D. I. Ratio. *p < 0.01; **p < 0.05. […] SOCS3 and phospho-Tyr STAT3 levels were detected by WB and normalized to β-actin levels. […]

Tyk2 phosphorylation = Tyk2 phosphorylation in healthy keratinocytes (IL-22); format: cell-based, human; settings: IL-22 10 min, no peptide, n = 3
Experimental: 2nd- or 3rd-passage cultures of human keratinocyte strains (n = 5), obtained as previously described, were grown in serum-free Keratinocyte Growth Medium (KGM; Clonetics, Walkersville, MD, USA), for 3–5 days (at 60–80% confluence) before performing experiments. The HaCaT human keratinocyte cell line was a gift from N.E. Fusenig (Deutsches Krebsforschungszentrum, Heidelberg, Germany), and was grown in Dulbecco modified Eagle medium (DMEM; Biochrom, Cambridge, UK) supplemented with 10% Fetalclone II serum (HyClone Laboratories, South Logan, UT, USA). SCC-derived cell lines, CAL27-and CAL33 (American Tissue Culture Collection, ATCC, Milan, Italy), SCC12, SCC13 and SCC-15 (kindly provided by Dr. A. Marconi, University of Modena e Reggio Emilia, Italy), as well as M77015-08 and TE354.T (ATCC) were grown in DMEM (Biocrhom AG, Cambridge, UK) with 10% fetal bovine serum (HyClone Laboratories). Primary cultures of healthy keratinocytes and skin tumor cell lines were treated with peptides (KIR, KIR-ESS, Ctrl1 and Ctrl2) resuspended in 1X PBS for 1 h and, then, stimulated with 50 ng/ml IL-22 or 200 U/ml IFN-γ (R&D Systems, Minneapolis, MN, USA) in keratinocyte basal medium (KBM, Clonetics) or DMEM, respectively.
Total protein extracts were prepared as previously reported. Immunoprecipitation and immunoblotting were performed accordingly to standard procedures. […]

B1: IL-22: cytokine stimulus, R&D Systems (protein, UniProt Q9GZX6 34-179, looked up)
Interleukin-22: APISSHCRLDKSNFQQPYITNRTFMLAKEASLADNNTDVRLIGEKLFHGVSMSERCYLMKQVLNFTLEEVLFPQSDRFQPYMQEVVPFLARLSNRLSTCHIEGDDLHIQRNVQKLKDTVKKLGESGEIKAIGELDLLFMSLRNACI
[1]; IL-22 time course, WB, n = 3
  time of peak SOCS3 protein induction: 3 h
[1]; IL-22 time course, real-time PCR, n = 3
  time of peak SOCS3 mRNA induction: 1 h
[1]; healthy keratinocytes, 3 h mRNA, 6 h protein
  SOCS3 mRNA and protein expression: significantly induced mRNA and protein expression of SOCS3 in healthy keratinocytes
Tyk2 phosphorylation
  Tyk2 phosphorylation induced: induced molecular cascade implicating phosphorylation of IL-22R1, Tyk2 and Jak1
